In patent US20070037211A1 (COUNCIL OF SCIENTIFIC AND INDUSTRIAL RESEARCH CSIR, published 2007):
No end group written: not given here.

Biological target: T1, Hsp16.3, 16 kDa alpha-crystallin like heat shock protein of Mycobacterium tuberculosis, recombinant … (Mycobacterium tuberculosis, UniProt P9WMK1 1-144)
T1 construct: also called M. tuberculosis Acr; not shown: pQE-8 vector-derived residues flanking the 6xHis tag
T1 sequence: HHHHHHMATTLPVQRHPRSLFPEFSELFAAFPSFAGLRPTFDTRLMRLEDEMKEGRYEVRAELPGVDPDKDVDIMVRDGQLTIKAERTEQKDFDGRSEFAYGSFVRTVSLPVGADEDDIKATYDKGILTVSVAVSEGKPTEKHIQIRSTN
Experiment: reverse phage ELISA on coated Hsp16.3, anti-M13-HRP, A405

B1: M13 phage clone displaying peptide Seq ID 21 (Tyr-Pro-His-His-Phe-Lys-His-Arg-His-Ile-Pro-Ile), from Ph.D.-12 library (peptide)
peptide: YPHHFKHRHIPI
modifications: also: displayed on M13 phage, fused to coat protein
notes: Tested as whole phage particles in reverse phage ELISA; not shown: M13 coat protein to which the peptide is fused, and the spacer to it
  fold binding over non-specific control BSA: ~3 fold
